Laboratory results taken from patent publication US20080057063A1 (published 2008).
Changes are numbered by the printed parent chain.

B1: sc 161 (antibody, V domains shown)
VH: EVQLVQSGAEVKKPGESLKISCKGSGYSFTSYWIGWVRQMPGKGLEWMGIIYPGDSDTRYSPSFQGQVTISADKSISTAYLQWSSLKASDTAMYYCARHGIAAAGFYYYYMDVWGQGTTVTVSS
VL: EIVLTQSPDTLSLSPGERASLSCRASQNVNRNYLVWYQQKPGQAPRLLIYGTSNRATGIPDRFSGSGSGTDFTLTISRLEPEDFAVYYCQQCGSLPFTFGPGTKVDIKR
B2: sc 277 (antibody, V domains shown)
VH: EVQLVQSGAEVKKPGESLKISCKGSGYSFPSYWIGWVRQMPGKGLEWMGIIYPGDSDTRYSPSFQGQVTISADKSISTAYLQWSSLKASDTAMYYCARHPMEDGMDVWGQGTTVTVSS
VL: SYELTQPPSVSVSPGQTARITCSGDALPKKYAFWYQQKSGQAPVLVIYDDNKRPSGIPERFSGSSSGTMATLTITGAQVEDEADYYCYSTDSSGHHVFGGGTKLTVL
B3: sc 58 (antibody, V domains shown)
VH: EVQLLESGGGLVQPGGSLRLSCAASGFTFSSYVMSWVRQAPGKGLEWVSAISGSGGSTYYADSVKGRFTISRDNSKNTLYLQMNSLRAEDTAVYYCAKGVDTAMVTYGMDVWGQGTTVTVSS
VL: SYELTQPPSVSVSPGQTARITCSGDALPKKYAYWYQQKSGQAPVLVIYDDSKRPSGIPERFSGSSSGTMATLTISGAQVEDEADYYCYSTDSSGNHRVFGGGTKLTVL
notes: also called sc 058
B4: sc 298 (antibody, V domains shown)
VH: QVQLVESGGGVVQPGRSLRLSCAASGFTFSSYGMHWVRQAPGKGLEWVAVIWYGGSNKYYADSVKGRFTISRDNSKNTLYLQMNSLRAEDTAVYYCARDLAARRGDYYYYGMDVWGQGTTVTVSS
VL: SSELTQDPVVSVALGQTVRITCQGDSLRSYYLSWYQQKPGQAPVLVIYGKNNRPSGIPDRFSGSNSGNTASLTITGAQAEDEADYYCNSRDSSGNHLFGGGTKLTVL
B5: sc 254 (antibody, V domains shown)
VH: QVQLQESGPGLVKPSQTLSLTCTVSGGSISSGGYYWSWIRQHPGKGLEWIGYIYYSGSTYYNPSLKSRVTISVDTSKNQFSLKLSSVTAADTAMYYCARYRGPAAGRGDFYYFGMDVWGQGTTVTVSS
VL: DIVMTQTPLSLSVTPGQPASIFCKSSQSLLNSDGKTYLCWYLQKPGQPPQLLIYEVSNRFSGVPDRFSGSGSGTDFTLKISRVEAEDVGVYYCMQGIQLPWAFFGQGTKVEIK
B6: sc 264 (antibody, V domains shown)
VH: QVQLQESGPGLVKPSQTLSLTCTVSGGSISSGGYYWSWIRQHPGKGLEWIGYIYYSGRTYNNPSLKSRVTISVDTSKNQFSLKLSSVTAADTAVYYCARVATGRGDYHFYAMDVWGQGTTVTVSS
VL: SYELTQPSSVSVSPGQTARITCSGDVLAKKSARWFHQKPGQAPVLVIYKDSERPSGIPERFSGSSSGTTVTLTISGAQVEDEAAYYCYSAADNNLVFGGGTKLTVL
notes: RGD in heavy chain CDR3
B7: sc 97 (antibody, V domains shown)
VH: EVQLVQSGAEVKKPGESLKISCKGSGYSFTSYWIGWVRQMPGKGLEWMGIIYPGDSDTRYSPSFQGQVILSADKSISTAYLQWSSLKASDTAMYYCARHDESSGYYYVFDIWGQGTMVTVSS
VL: SYELTQPPSVSVSPGQTARITCSGDALPKKYAYWYQQKSGQAPVLVIYEDIKRPSGIPERFSGSSSGTMATLTISGAQVEDEADYYCYSTDSSGNHWVFFGGGTKLTVL
notes: also called sc 097
B8: sc 320 (antibody, V domains shown)
VH: EVQLVESGGGLVKPGGSLRLSCAASGYTFTNYIMHWVRQAPGKGLEWVSSISISSSYIYYADSVKGRFTISRDNAKNSLYLQMNSLRAEDTAVYYCARDPVPLERRDYYYGMDVWGQGTTVTVSS
VL: QSVLTQPPSMSAAPGQKVTISCSGSSSNIGNNYVSWYQQLPGTAPKLLIYDNNKRPSGIPDRFSGSKSGTSATLGITGLQTGDEADYYCGTWDSSLSAGVFGGGTKLTVL
B9: sc 188 SDM (antibody, V domains shown)
VH: QVQLQESGPGLVKPSQTLSLTCTVSGGSISSGVYYWTWIRQHPGNGLEWIGYIYYSGSTSYNPSLKSRVTISVDTSKKQFSLKLTSVTAADTAVYYCAREGPLRGDYYYGLDVWGQGTTVTVSS
VL: EIVLTQSPGTLSLSPGERATLSCRAGQTISSRYLAWYQQKPGQAPRPLIYGASSRATGIPDRFSGSGSGTDFTLTISRLEPEDFAVYYCQQYGSSPRTFGQGTKVEIK
notes: Variable domains only
B10: sc 374 (antibody, V domains shown)
VH: B4 VH with G54D, D99T, L100E, A101G, A102I, R103A, R104A, G105R, D106L
VL: not shown
B11: sc 49 (antibody, V domains shown)
VH: QVQLQESGPGLVKPSQTLSLTCTVAGGSIRSGDYYWSWIRQHPGKGLEWIGNIYYSGSTYYNPSLKSRITISVATSRNQFSLKLTSVTAADTAVYYCARGGAITIFGVFDYWGQGTLVTVSS
VL: not shown
notes: also called sc 049

These binders were tested against T1, human αVβ6 integrin on cells (human, UniProt P06756 31-1048; P18564 22-788) (assay: cell-based or functional assay).

Assay 1 % Inhibition (HT29 adhesion to TGFβLAP) [%]	Assay 2 % Inhibition (HT29 adhesion to TGFβLAP) [%]	Average % Inhibition (HT29 adhesion to TGFβLAP) [%]	Binder
98	106	102	B1
98	101	100	B2
77	46	62	B3
98	102	100	B4
98	106	102	B5

Target: T1, human αVβ6 integrin on cells
Assay: cell-based or functional assay
Remark: another data set of the same source

Estimated IC50, n = 1 (HT29 adhesion to TGFβLAP) [ng/mL]	Estimated IC50, n = 2 (HT29 adhesion to TGFβLAP) [ng/mL]	Estimated IC50, n = 3 (HT29 adhesion to TGFβLAP) [ng/mL]	Binder
2410	137	–	B1
1460	540	720	B2
4060	2030	3260	B3
29	25	33	B4
63	37	37	B5

What follows are binders tested against T2, human αV on parental A375M cells, which express αVβ3 and αVβ5, but not αVβ6 (human, UniProt P06756 31-1048) (assay: cell-based or functional assay).
T2 sequence (P06756 31-1048 A375M): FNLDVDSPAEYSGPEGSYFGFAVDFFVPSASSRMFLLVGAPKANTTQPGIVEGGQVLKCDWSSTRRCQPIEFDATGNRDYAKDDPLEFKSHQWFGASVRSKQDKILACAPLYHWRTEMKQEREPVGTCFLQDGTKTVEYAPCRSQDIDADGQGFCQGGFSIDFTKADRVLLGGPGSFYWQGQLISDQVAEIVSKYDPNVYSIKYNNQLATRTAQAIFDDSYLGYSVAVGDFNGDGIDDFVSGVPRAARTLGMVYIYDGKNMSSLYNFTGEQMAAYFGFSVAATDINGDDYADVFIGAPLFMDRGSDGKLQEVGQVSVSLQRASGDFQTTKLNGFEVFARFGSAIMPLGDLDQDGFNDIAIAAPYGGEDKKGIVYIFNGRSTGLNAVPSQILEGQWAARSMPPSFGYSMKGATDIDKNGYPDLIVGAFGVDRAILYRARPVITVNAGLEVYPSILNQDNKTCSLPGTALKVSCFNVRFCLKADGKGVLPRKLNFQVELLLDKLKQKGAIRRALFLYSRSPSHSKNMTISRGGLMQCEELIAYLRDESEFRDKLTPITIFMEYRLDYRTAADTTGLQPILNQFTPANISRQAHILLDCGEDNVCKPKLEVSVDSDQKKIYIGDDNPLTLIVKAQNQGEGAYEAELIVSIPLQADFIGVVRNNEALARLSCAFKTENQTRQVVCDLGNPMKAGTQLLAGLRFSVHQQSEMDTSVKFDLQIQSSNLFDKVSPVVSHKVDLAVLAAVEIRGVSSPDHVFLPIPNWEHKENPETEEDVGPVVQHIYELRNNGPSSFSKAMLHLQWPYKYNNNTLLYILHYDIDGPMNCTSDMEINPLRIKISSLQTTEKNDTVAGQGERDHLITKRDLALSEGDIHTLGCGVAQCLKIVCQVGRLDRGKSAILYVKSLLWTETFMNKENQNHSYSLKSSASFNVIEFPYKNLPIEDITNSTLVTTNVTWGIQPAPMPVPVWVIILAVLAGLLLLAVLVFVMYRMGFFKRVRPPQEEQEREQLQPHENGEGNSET

Percent Inhibition (A375M adhesion to osteopontin peptide, 5 µg/ml) [%]	Binder
3	B6
9	B4

The binders below were run against T3, α4β1 integrin (on J6.77 cells) (UniProt P13612 34-1032; P05556 21-798, limits assumed) (assay: cell-based or functional assay).

Percent Inhibition (J6.77 adhesion to CS-1 peptide of fibronectin, 5 ug/ml) [%]	Binder
12	B1
-8	B6
-7	B7
-17	B2
-8	B8
-14	B3
-7	B4
0	B5

Each binder was assayed against T4, α5β1 integrin (on K562 cells) (UniProt P08648 42-1049; P05556 21-798, limits assumed) (assay: cell-based or functional assay).
T4 sequence (P08648 42-1049 limits assumed, chain 1 of 2): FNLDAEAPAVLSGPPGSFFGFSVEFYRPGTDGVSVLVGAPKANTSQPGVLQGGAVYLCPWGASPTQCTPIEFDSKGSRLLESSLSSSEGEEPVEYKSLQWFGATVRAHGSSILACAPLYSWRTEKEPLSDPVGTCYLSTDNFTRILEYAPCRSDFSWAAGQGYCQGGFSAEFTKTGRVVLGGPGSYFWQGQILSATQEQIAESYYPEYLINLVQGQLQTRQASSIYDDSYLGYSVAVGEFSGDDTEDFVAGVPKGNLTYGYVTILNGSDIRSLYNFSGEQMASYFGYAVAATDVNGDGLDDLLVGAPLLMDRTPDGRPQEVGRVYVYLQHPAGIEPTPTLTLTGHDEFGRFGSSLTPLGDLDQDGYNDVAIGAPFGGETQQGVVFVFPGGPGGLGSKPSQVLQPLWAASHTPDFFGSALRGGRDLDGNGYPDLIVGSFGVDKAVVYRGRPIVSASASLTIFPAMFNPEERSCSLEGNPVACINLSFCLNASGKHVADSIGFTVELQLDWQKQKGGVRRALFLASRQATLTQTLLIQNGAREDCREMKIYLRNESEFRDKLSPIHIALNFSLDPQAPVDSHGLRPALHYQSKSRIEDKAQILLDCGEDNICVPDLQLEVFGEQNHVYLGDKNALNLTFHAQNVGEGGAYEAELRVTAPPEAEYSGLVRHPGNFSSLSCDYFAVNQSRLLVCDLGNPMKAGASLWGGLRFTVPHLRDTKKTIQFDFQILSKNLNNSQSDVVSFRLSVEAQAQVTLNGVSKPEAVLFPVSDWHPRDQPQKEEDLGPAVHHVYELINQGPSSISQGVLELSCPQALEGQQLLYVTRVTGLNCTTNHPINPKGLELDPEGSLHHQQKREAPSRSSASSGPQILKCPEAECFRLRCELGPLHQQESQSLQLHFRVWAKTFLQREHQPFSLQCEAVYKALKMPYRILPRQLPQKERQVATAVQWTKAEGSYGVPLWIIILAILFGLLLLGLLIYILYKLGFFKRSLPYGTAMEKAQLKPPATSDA
T4 sequence (P05556 21-798 limits assumed, chain 2 of 2): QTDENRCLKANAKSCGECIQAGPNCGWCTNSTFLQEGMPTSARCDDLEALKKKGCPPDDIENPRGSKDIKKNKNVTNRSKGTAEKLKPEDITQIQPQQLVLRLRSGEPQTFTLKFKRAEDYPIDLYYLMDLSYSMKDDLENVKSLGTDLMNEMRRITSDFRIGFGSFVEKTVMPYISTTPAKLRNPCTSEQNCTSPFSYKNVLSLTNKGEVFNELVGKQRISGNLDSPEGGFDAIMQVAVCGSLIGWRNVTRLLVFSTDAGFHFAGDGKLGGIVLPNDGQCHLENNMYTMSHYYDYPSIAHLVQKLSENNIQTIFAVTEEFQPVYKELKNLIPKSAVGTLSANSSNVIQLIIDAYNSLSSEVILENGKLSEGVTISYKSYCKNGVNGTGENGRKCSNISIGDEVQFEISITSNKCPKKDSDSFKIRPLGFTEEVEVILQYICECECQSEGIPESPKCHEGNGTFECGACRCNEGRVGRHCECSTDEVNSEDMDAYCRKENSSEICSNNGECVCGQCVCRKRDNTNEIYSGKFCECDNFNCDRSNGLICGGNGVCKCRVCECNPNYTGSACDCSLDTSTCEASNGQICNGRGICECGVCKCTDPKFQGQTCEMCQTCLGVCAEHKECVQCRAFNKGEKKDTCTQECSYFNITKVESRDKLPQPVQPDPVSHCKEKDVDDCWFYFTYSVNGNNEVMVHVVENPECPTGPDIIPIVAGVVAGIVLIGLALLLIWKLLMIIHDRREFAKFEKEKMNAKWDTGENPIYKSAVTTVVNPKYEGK

Percent Inhibition (K562 adhesion to FN9-10 peptide of fibronectin, 5 µg/ml) [%]	Binder
-4	B6
2	B4
-9	B5

Target: T1, human αVβ6 integrin on cells
Assay: cell-based or functional assay
Remark: another data set of the same source

IC50, n = 1 (HT29 adhesion to TGFβLAP) [ng/mL]	IC50, n = 2 (HT29 adhesion to TGFβLAP) [ng/mL]	IC50, n = 3 (HT29 adhesion to TGFβLAP) [ng/mL]	Binder
22	24	67	B9

Target: T3, α4β1 integrin (on J6.77 cells)
Assay: cell-based or functional assay
Remark: another data set of the same source

Percent Inhibition (J6.77 adhesion to CS-1 peptide of fibronectin, 5 ug/ml) [%]	Binder
-30	B6
-6	B9

Target: T4, α5β1 integrin (on K562 cells)
Assay: cell-based or functional assay
Remark: another data set of the same source

% Inhibition (K562 adhesion to fibronectin) [%]	Binder
3	B6
-8	B9

What follows are binders tested against T2, human αV on parental A375M cells, which … (assay: FACS, parental A375M cells (αVβ3, αVβ5)).
Method: For this assay, cross-reactivity was tested on the supernatants using FACS analysis on parental A375M cells, which express αVβ3 and αVβ5, but not αVβ6.
The assays were performed as follows. […] The cells were then pelleted, the supernatant discarded, and resuspended in FACS buffer and incubated for 30 minutes at 37° C. Cells were then washed twice with FACS buffer and resuspended in a final volume of 100 μL FACS buffer per well.
Approximately 100,000 cells total, comprising a 50:50 mix of CFSE-labeled A375M cells and transfected 293 cells, were used in each reaction as follows. 100 μL of CFSE-labeled A375M cells and 100 μL of 293 cells were dispensed into a V-bottom plate. The cells in the plate were pelleted at 1500 rpm for 3 minutes, and then resuspended in 100 μL FACS buffer. The pelleting step was repeated, and the FACS buffer supernatant was removed. The harvested antibody-containing supernatants, or control primary antibodies were added in a volume of 50 μL and the cells were resuspended. […] The plate was incubated on ice for 45 minutes, after which 100 μL FACS buffer was added to dilute the primary antibody. The cells were then pelleted by centrifuging at 1500 rpm for 3 minutes, and the pellet was resuspended in 100 μL FACS buffer. The pelleting step was repeated, and the FACS buffer supernatant was removed. Cells were then resuspended in the appropriate secondary antibody (5 μg/ml) with 7AAD dye (10 μg/ml), and stained on ice for 7 minutes. Then 150 μL of FACS buffer was added and the cells were pelLeted at 1500 rpm for 3 minutes, after which the cells were washed in 100 μL FACS buffer, pelleted, and then resuspended in 250 μL buffer and added to FACS tubes.

% Cells Shifted [%]	GeoMean	Binder
11	16.7	B1
46	2.35	B6
24	1.84	B7
23	1.86	B2
15	23.2	B8
18	1.78	B3
45	2.14	B4
–	2.14	B10
20	1.74	B11

The binders below were run against T1, human αVβ6 integrin on cells (assay: FACS, 293T-αVβ6 cells, antibody at 5 ug/ml).

Geometric Mean Shift	Binder
6820	B9

What follows are binders tested against T1, human αVβ6 integrin on cells (assay: FACS, 293T-αVβ6 cells, antibody at 20 ug/ml).

Geometric Mean Shift	Binder
6760	B9

What follows are binders tested against T1, human αVβ6 integrin on cells (assay: FACS, 293T-αVβ6 cells, antibody at 1.25 ug/ml).

Geometric Mean Shift	Binder
4530	B9

What follows are binders tested against T5, cynomolgus αVβ6 on cells (cynomolgus, UniProt A0A2K5WCD3 31-1048; A0A2K5TZ36 22-787) (assay: FACS, HEK-293 transfected with cynomolgus αV and β6).
T5 construct: whole, on cells; also called macaque αVβ6; Mac AVB6
Method: Cross-reactivity of the antibody-containing supernatants to macaque αVβ6 was tested on the supernatants using FACS analysis on HEK-293 cells transiently transfected with cynomolgus αV and cynomolgus β6.
HEK-293 cells were transiently transfected with cynomolgus αV and cynomolgus β6. After 48 hours, the cells were collected and resuspended in FACS buffer to reach a final concentration of approximately 50,000 cells in 100 μL.
Approximately 100,000 cells total, comprising a 50:50 mix of CFSE-labeled A375M cells and transfected 293 cells, were used in each reaction as follows. 100 μL of CFSE-labeled A375M cells and 100 μL of 293 cells were dispensed into a V-bottom plate. The cells in the plate were pelleted at 1500 rpm for 3 minutes, and then resuspended in 100 μL FACS buffer. The pelleting step was repeated, and the FACS buffer supernatant was removed. The harvested antibody-containing supernatants, or control primary antibodies were added in a volume of 50 μL and the cells were resuspended. […] The plate was incubated on ice for 45 minutes, after which 100 μL FACS buffer was added to dilute the primary antibody. The cells were then pelleted by centrifuging at 1500 rpm for 3 minutes, and the pellet was resuspended in 100 μL FACS buffer. The pelleting step was repeated, and the FACS buffer supernatant was removed. Cells were then resuspended in the appropriate secondary antibody (5 μg/ml) with 7AAD dye (10 μg/ml), and stained on ice for 7 minutes. Then 150 μL of FACS buffer was added and the cells were pelLeted at 1500 rpm for 3 minutes, after which the cells were washed in 100 μL FACS buffer, pelleted, and then resuspended in 250 μL buffer and added to FACS tubes. Samples were analyzed on a high throughput FACS machine and analyzed using Cell Quest Pro software.

% Cells Shifted [%]	GeoMean	Binder
14	33	B1
35	33.4	B2
53	63.1	B4
–	61.8	B10
–	78.5	B5

The binders below were run against T1, human αVβ6 integrin on cells (assay: FMAT, HEK 293 cells overexpressing αVβ6, supernatant).

FMAT Count	FMAT FL1	FMAT FL1 × Count	Binder
23	725	16700	B1
28	382	10700	B2
102	2140	218000	B4
174	9180	1.6e+06	B5

The binders below were run against T6, soluble αVβ6 (human, UniProt P06756 31-992; P18564 22-709) (assay: Biacore, mAb captured on anti-human IgG, soluble αVβ6 injected, 1:1 fit).
T6 construct: extracellular domain; also called soluble αVβ6 protein; soluble antigen
T6 sequence (P06756 31-992, chain 1 of 2): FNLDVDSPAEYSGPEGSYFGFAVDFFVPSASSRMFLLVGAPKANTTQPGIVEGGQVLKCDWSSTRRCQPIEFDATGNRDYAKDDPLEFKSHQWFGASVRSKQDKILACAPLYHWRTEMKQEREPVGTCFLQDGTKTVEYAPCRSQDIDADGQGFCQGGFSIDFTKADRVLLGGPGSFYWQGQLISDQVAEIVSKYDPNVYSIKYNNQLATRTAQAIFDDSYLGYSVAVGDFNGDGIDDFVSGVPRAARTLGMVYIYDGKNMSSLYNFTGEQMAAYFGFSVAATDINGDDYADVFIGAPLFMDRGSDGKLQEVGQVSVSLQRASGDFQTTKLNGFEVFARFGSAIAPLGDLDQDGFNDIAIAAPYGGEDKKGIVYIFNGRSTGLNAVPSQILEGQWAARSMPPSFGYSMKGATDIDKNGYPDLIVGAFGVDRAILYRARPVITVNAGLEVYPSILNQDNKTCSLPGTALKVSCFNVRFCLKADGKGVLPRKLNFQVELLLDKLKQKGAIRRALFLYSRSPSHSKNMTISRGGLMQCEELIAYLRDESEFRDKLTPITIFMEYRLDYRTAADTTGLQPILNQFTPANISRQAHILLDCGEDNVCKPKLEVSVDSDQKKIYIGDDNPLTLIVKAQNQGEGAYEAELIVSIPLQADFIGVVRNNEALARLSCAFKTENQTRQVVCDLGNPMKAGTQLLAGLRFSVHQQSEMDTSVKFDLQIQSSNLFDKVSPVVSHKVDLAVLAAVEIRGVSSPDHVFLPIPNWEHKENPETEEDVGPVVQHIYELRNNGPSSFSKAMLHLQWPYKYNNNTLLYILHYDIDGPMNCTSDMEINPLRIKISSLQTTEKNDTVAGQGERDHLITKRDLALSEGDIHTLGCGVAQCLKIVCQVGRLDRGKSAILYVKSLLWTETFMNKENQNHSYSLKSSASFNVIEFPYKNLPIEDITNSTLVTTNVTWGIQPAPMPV
T6 sequence (P18564 22-709, chain 2 of 2): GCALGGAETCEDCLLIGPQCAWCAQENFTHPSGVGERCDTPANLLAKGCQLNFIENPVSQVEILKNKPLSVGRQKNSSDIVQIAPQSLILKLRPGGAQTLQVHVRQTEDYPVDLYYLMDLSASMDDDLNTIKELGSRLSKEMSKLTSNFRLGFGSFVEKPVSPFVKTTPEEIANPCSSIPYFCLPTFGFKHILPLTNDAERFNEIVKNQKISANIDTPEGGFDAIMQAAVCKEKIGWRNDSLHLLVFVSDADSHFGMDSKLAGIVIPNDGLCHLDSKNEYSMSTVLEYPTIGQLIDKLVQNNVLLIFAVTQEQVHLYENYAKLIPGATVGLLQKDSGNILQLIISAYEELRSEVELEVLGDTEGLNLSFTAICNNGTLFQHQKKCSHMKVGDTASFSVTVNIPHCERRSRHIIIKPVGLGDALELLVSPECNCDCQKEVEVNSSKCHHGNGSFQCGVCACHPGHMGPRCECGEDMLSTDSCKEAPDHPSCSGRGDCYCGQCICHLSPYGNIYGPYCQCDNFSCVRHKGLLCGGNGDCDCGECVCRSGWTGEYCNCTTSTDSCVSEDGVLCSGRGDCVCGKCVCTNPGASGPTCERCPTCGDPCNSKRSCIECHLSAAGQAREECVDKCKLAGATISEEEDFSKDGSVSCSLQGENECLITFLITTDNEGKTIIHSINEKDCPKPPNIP
Method: The Biacore analysis was performed as follows. A high-density goat α human IgG antibody surface over two CM5 Biacore chips was prepared using routine amine coupling. Each mAb was diluted in degassed HBS-P running buffer containing 100 μg/ml BSA, 1 mM MgCl₂, and 1 mM CaCl₂ to a concentration of approximately 1 μg/mL. […] A 4-minute wash step at 50 μL/min followed to stabilize the mAb baseline.
A 10-minute dissociation followed each antigen injection. The antigen samples were prepared in the HBS-P running described above. All samples were randomly injected in triplicate with several mAb capture/buffer inject cycles interspersed for double referencing. […] A flow rate of 50 μL/min was used for all antigen injection cycles.
The data were then fit to a 1:1 interaction model with the inclusion of a term for mass transport using CLAMP.

Kd [nM]	koff [s⁻¹]	kon [M⁻¹ s⁻¹]	Binder
21	0.00118	56500	B4
34.9	–	–	B5
